The numbers were not newly measured in PMC8969216, which cites them from elsewhere.

For this data set, the target named is SLAMF1 (Homo sapiens) (UniProt Q13291).

In the case of SLAMF1 (from UniProt Q13291), the Kd (usually a measure of binding affinity in units of concentration) is 200 µM.
